46 molecules from patent US20220089647A1 (FUJIFILM, published 2022) can be followed below.

Starred links: 1 amine or outer side, 2 acyl side, 3 side chain; linkers in the order of their positions; H or OH if unused. Positions of bridges follow the written chain, without caps; N, C: chain ends. Non-standard residues stand in square brackets, D forms with d. Primed or numbered codes have the meaning given here. No end group written: not given here. Dab(acetyl)″ = 2-amino-4-(acetylamino)butanoic acid, acetyl CH3 carbon bonded to the S of Hcy (S-CH2-C(=O)-NH-), O=C(C[*:3])NCC[C@H](N[*:1])C(=O)[*:2]; Dab(acetyl) = 2-amino-4-acetylamino-butanoic acid residue (N-γ-acetyl-diaminobutyric acid), CC(=O)NCC[C@H](N[*:1])C(=O)[*:2]; Dab(acetyl)(3) = 2-amino-4-(acetylamino)butanoic acid (Dab with N-γ-acetyl), CC(=O)NCC[C@H](N[*:1])C(=O)[*:2]; COCH2 = acetyl group that carries the bridge; hCys = N[C@@H](CCS)C(=O)O; Dab = NCC[C@H](N)C(=O)O

In the assay the target is T1, human integrin αvβ5 (human, UniProt P06756 31-992; P18084 24-719, limits assumed).
T1 construct: Heterodimer flowed as analyte at 30, 100, 300 and 1,000 nM in HEPES buffer with 5 mM MgCl2
Kind of assay: SPR, Biacore 3000, peptide immobilised; A = KD 50 nM or less. Here is the method:
However, only for the cyclic peptides 125, 126, and 127, in which the number of lysine residues having an amino group as the immobilizing functional group was zero, the amount of the sample solution to be supplied to the sensor chip was set to 500 μL instead of 20 μL. Further, 70 μL of the mixed aqueous solution of 0.2 M EDC and 0.04 M NHS was added to another flow channel of the same sensor chip without immobilizing the sample, and then blocking treatment and washing treatment were carried out. Hereinafter, the obtained immobilization-treated sensor chip is referred to as an “immobilization-treated sensor chip A”.
After adding human integrin αvβ5 for 10 minutes at 25° C., which was diluted to 30 nM using a HEPES buffer solution to which magnesium chloride was added to 5 mM, in each flow channel of the immobilization-treated sensor chip A prepared in (1) above, the same HEPES buffer solution (containing 5 mM magnesium chloride) was allowed to flow as a running buffer for 30 minutes, and measurement was carried out with Biacore 3000. Then, a regeneration treatment of removing human integrin αvβ5 was carried out by allowing a 0.5 M EDTA aqueous solution to flow through each flow channel for 10 minutes. Further, the above-described measurement process consisting of adding integrin for 10 minutes, allowing a running buffer to flow for 30 minutes, carrying out measurement with Biacore 3000, and carrying out regeneration treatment with 0.5 M EDTA aqueous solution was carried out in the same manner for 100 nM human integrin αvβ5, 300 nM human integrin αvβ5, and 1,000 nM human integrin αvβ5. Dissociation constant between the cyclic peptide and human integrin αvβ5 was calculated from the difference between the value measured by Biacore 3000 in the flow channel immobilized with the cyclic peptide and the value measured by Biacore 3000 in the flow channel unimmobilized with the cyclic peptide, in a case where each concentration of human integrin αvβ5 was allowed to flow, and the integrin binding property was evaluated according to the following evaluation standards. It is preferable that the evaluation result satisfies the evaluation standard A, B, or C.

T1 sequence (P06756 31-992 limits assumed, chain 1 of 2): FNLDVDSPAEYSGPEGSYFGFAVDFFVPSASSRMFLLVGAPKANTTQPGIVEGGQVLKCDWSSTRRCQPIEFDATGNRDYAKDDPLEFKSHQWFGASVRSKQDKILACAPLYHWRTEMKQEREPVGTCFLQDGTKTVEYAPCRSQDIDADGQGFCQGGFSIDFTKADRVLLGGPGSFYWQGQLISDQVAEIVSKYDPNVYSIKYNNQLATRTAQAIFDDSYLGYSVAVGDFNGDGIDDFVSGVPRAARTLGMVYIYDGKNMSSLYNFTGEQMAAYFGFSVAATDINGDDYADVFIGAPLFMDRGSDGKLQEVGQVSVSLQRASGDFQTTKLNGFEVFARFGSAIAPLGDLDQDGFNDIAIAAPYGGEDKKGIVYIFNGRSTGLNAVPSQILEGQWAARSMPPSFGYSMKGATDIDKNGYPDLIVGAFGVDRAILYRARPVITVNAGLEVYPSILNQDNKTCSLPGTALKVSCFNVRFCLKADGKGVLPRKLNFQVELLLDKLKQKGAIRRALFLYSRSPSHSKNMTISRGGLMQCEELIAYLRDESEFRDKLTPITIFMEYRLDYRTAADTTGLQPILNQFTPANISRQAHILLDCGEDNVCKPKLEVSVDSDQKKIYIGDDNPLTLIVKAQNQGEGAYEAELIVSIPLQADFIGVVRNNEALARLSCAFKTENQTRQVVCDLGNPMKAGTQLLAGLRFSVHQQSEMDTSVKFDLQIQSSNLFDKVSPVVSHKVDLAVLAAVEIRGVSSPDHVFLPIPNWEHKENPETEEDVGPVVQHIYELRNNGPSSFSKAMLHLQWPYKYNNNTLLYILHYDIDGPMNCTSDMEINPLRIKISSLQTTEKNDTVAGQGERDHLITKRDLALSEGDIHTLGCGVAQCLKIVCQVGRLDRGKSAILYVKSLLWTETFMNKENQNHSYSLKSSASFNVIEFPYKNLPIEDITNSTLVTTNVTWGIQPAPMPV
T1 sequence (P18084 24-719 limits assumed, chain 2 of 2): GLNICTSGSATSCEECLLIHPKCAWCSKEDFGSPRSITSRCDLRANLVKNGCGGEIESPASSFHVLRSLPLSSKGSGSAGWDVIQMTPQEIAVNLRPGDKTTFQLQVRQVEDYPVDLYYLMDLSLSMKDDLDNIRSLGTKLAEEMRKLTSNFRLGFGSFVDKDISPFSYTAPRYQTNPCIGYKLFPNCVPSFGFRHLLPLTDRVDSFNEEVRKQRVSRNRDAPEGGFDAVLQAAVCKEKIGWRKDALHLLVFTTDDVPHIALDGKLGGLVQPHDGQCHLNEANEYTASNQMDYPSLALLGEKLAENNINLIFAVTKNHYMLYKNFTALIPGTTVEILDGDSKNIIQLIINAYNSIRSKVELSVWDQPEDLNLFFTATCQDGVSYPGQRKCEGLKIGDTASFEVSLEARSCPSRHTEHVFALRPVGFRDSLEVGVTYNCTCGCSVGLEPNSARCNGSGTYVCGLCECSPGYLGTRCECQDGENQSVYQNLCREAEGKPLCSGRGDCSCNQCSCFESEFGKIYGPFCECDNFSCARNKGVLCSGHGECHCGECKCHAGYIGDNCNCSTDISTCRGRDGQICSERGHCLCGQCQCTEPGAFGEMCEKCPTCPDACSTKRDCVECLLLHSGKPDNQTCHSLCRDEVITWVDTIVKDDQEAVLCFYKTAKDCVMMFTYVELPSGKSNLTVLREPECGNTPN

In turn, A[hCys]VPRGDTFA[Dab(acetyl)″]AKKK (thioether 2-11) [Cyclic peptide 109] showed a dissociation constant of no more than 50 nM.

Turning to KKK[hCys]VPRGDTFA[Dab(acetyl)″] (thioether 4-13) [Cyclic peptide 104], the dissociation constant is no more than 50 nM.

KKK[hCys]IPRGDTFA[Dab(acetyl)″] (thioether 4-13) [Cyclic peptide 62] came in with a dissociation constant of no more than 50 nM.

KKK[hCys]IPRGDSFA[Dab(acetyl)″] (thioether 4-13) [Cyclic peptide 101]: the dissociation constant is no more than 50 nM.

As to KKK[hCys]IPRGDNFR[Dab(acetyl)(3)] (thioether 4-13) [Cyclic peptide 11], the “dissociation constant (KD)” value is no more than 50 nM.

For the molecule KKK[hCys]IPRGDTFR[Dab(acetyl)″] (thioether 4-13) [Cyclic peptide 61], the dissociation constant was no more than 50 nM.

Consider KKK[hCys]VPRGDSFA[Dab(acetyl)″] (thioether 4-13) [Cyclic peptide 102], for which the dissociation constant is no more than 50 nM.

A[hCys]IPRGDSFA[Dab(acetyl)″]AKKK (thioether 2-11) [Cyclic peptide 100] showed a dissociation constant of no more than 50 nM.

Turning to KKKG[hCys]IPRGDTFR[Dab(acetyl)″]A (thioether 5-14) [Cyclic peptide 54], the “dissociation constant (KD)” value was no more than 50 nM.

In turn, KKKA[hCys]VPRGDTFA[Dab(acetyl)″]A (thioether 5-14) [Cyclic peptide 108] registered a dissociation constant of no more than 50 nM.

For KKKG[hCys]IPRGDTFR[Dab(acetyl)″]G (thioether 5-14) [Cyclic peptide 55], the “dissociation constant (KD)” value is no more than 50 nM.

Regarding KKKG[hCys]VPRGDTFA[Dab(acetyl)″]G (thioether 5-14) [Cyclic peptide 105], the dissociation constant is no more than 50 nM.

The molecule KKKG[hCys]IPRGDSFA[Dab(acetyl)]G (thioether 5-14) [Cyclic peptide 95] returned a dissociation constant of no more than 50 nM.

As to KKKA[hCys]IPRGDTFR[Dab(acetyl)″]A (thioether 5-14) [Cyclic peptide 56], the “dissociation constant (KD)” value is no more than 50 nM.

Consider KKKA[hCys]VTRGDTFR[Dab(acetyl)]A (thioether 5-14) [Cyclic peptide 89], for which the dissociation constant is no more than 50 nM.

In the case of KKKA[hCys]VPRGDAFA[Dab(acetyl)]A (thioether 5-14) [Cyclic peptide 91], the dissociation constant is no more than 50 nM.

KKKG[hCys]VPRGDTFA[Dab(acetyl)″]A (thioether 5-14) [Cyclic peptide 106]: the dissociation constant is no more than 50 nM.

As for KKKA[hCys]VPRGDTFA[Dab(acetyl)″]G (thioether 5-14) [Cyclic peptide 107], the dissociation constant was no more than 50 nM.

B1: Cyclic peptide 136 (peptide)
peptide: KKKAXVPRGDTFAXA
modifications: not fully specified; KKKA(Dab(acetyl))VPRGDTFA-(Pen)-A; thioether bond Dab(acetyl)-Pen
On to B1, for which the dissociation constant is no more than 50 nM.

As for KKKG[hCys]VPRGDSFA[Dab(acetyl)]G (thioether 5-14) [Cyclic peptide 99], the dissociation constant was no more than 50 nM.

For the molecule KKKA[hCys]IPRGDTFG[Dab(acetyl)]A (thioether 5-14) [Cyclic peptide 88], the dissociation constant is no more than 50 nM.

B2: Cyclic peptide 74 (peptide)
peptide: KKKAXVPRGDTFRXA
modifications: not fully specified; KKKA-(Hcy)-VPRGDTFR(Dab(acetyl))A; thioether bond Hcy-Dab(acetyl)
Molecule B2 displayed a dissociation constant of no more than 50 nM.

The molecule KKKA[hCys]IPRGDTFA[Dab(acetyl)]A (thioether 5-14) [Cyclic peptide 87] registered a dissociation constant of no more than 50 nM.

On to KKKA[hCys]IPRGDAFA[Dab(acetyl)]A (thioether 5-14) [Cyclic peptide 90], for which the dissociation constant was no more than 50 nM.

As to KKKA[hCys]VPRGDSFA[Dab(acetyl)]A (thioether 5-14) [Cyclic peptide 96], the dissociation constant was no more than 50 nM.

On to KKKG[hCys]IPRGDTFA[Dab(acetyl)]A (thioether 5-14) [Cyclic peptide 86], for which the dissociation constant is no more than 50 nM.

In the case of KKKA[hCys]VPRGDSFA[Dab(acetyl)]G (thioether 5-14) [Cyclic peptide 97], the dissociation constant is no more than 50 nM.

B3: Cyclic peptide 71 (peptide)
peptide: KKKGXLPRGDTFRXA
modifications: not fully specified; KKKG-(Hcy)-LPRGDTFR(Dab(acetyl))A; thioether bond Hcy-Dab(acetyl)
B3 registered a dissociation constant of no more than 50 nM.

Consider KKKG[hCys]IPRGDNFR[Dab(acetyl)(3)]A (thioether 5-14) [Cyclic peptide 1], for which the “dissociation constant (KD)” value was no more than 50 nM.

Consider KKKA[hCys]IPRGDNFR[Dab](COCH2)A (thioether 5-14) [Cyclic peptide 2], for which the “dissociation constant (KD)” value is no more than 50 nM.

B4: Cyclic peptide 83 (peptide)
peptide: KKKAXIPRGDTFSXA
modifications: not fully specified; KKKA-(Hcy)-IPRGDTFS(Dab(acetyl))A; thioether bond Hcy-Dab(acetyl)
B4: the dissociation constant was no more than 50 nM.

B5: Cyclic peptide 85 (peptide)
peptide: KKKAXIPRGDTFAXG
modifications: not fully specified; KKKA-(Hcy)-IPRGDTFA(Dab(acetyl))G; thioether bond Hcy-Dab(acetyl)
B5 yielded a dissociation constant of no more than 50 nM.

B6: Cyclic peptide 69 (peptide)
peptide: KKKGXEPRGDTFRXA
modifications: not fully specified; KKKG-(Hcy)-EPRGDTFR(Dab(acetyl))A; thioether bond Hcy-Dab(acetyl)
Consider B6, for which the dissociation constant was no more than 50 nM.

KKKG[hCys]IPRGDSFA[Dab(acetyl)]A (thioether 5-14) [Cyclic peptide 94] returned a dissociation constant of no more than 50 nM.

B7: Cyclic peptide 78 (peptide)
peptide: KKKAXIPRGDVFRXA
modifications: not fully specified; KKKA-(Hcy)-IPRGDVFR(Dab(acetyl))A; thioether bond Hcy-Dab(acetyl)
B7 showed a dissociation constant of no more than 50 nM.

B8: Cyclic peptide 84 (peptide)
peptide: KKKGXIPRGDTFAXG
modifications: not fully specified; KKKG-(Hcy)-IPRGDTFA(Dab(acetyl))G; thioether bond Hcy-Dab(acetyl)
Take B8: the dissociation constant is no more than 50 nM.

B9: Cyclic peptide 77 (peptide)
peptide: KKKAXISRGDTFRXA
modifications: not fully specified; KKKA-(Hcy)-ISRGDTFR(Dab(acetyl))A; thioether bond Hcy-Dab(acetyl)
The molecule B9 returned a dissociation constant of no more than 50 nM.

B10: Cyclic peptide 70 (peptide)
peptide: KKKGXVPRGDTFRXA
modifications: not fully specified; KKKG-(Hcy)-VPRGDTFR(Dab(acetyl))A; thioether bond Hcy-Dab(acetyl)
B10 registered a dissociation constant of no more than 50 nM.

B11: Cyclic peptide 122 (peptide)
peptide: KKKAXVPRGDTFAXA
modifications: not fully specified; KKKA(Dab(acetyl))VPRGDTFA-(Hcy)-A; thioether bond Dab(acetyl)-Hcy
Consider B11, for which the dissociation constant was no more than 50 nM.

B12: Cyclic peptide 75 (peptide)
peptide: KKKAXTPRGDTFRXA
modifications: not fully specified; KKKA-(Hcy)-TPRGDTFR(Dab(acetyl))A; thioether bond Hcy-Dab(acetyl)
In turn, B12 gave a dissociation constant of no more than 50 nM.

KKKA[hCys]IPRGDSFA[Dab(acetyl)]G (thioether 5-14) [Cyclic peptide 93] displayed a dissociation constant of no more than 50 nM.

As to KKKG[hCys]LPRGDNFR[Dab](COCH2)A (thioether 5-14) [Cyclic peptide 27], the “dissociation constant (KD)” value was no more than 50 nM.

KKKG[hCys]VPRGDSFA[Dab(acetyl)]A (thioether 5-14) [Cyclic peptide 98]: the dissociation constant is no more than 50 nM.

In turn, KKKA[hCys]IPRGDSFA[Dab(acetyl)]A (thioether 5-14) [Cyclic peptide 92] gave a dissociation constant of no more than 50 nM.

Regarding [hCys]VPRGDTFA[Dab(acetyl)″]KKK (thioether 1-10) [Cyclic peptide 103], the dissociation constant was no more than 50 nM.

For KKK[hCys]IPRGDTF[Dab(acetyl)″]A (thioether 4-12) [Cyclic peptide 60], the “dissociation constant (KD)” value was no more than 50 nM.
